Reference: patent publication US20210139542A1

What was measured:
HEWL-Full8 (hen) [1] = target: HEWL-Full8 (hen) (UniProt P00698); assay: BLI, mAb on AHC biosensor, 100 nM antigen, footnote e bounds the value
HEWL-Hel-108 (hen) [2] = target: HEWL-Hel-108 (hen) (UniProt P00698); assay: BLI, mAb on AHC biosensor, 100 nM antigen
HEWL-Full2 (hen) [3] = target: HEWL-Full2 (hen) (UniProt P00698); assay: BLI, mAb on AHC biosensor, 100 nM antigen, footnote d bounds the value
HEWL-Full4 (hen) [4] = target: HEWL-Full4 (hen) (UniProt P00698); assay: as above
HEWL-Full2 (hen) [5] = target: HEWL-Full2 (hen) (UniProt P00698); assay: BLI, mAb on AHC biosensor, 100 nM antigen
HEWL-Full2 (hen) [6] = target: HEWL-Full2 (hen) (UniProt P00698); assay: BLI, mAb on AHC biosensor, 100 nM antigen, footnote c bounds the value
HEWL-Hel-108 (hen) [7] = target: HEWL-Hel-108 (hen) (UniProt P00698); assay: as above
HEWL-Full8 (hen) [8] = target: HEWL-Full8 (hen) (UniProt P00698); assay: as above
HEWL-Full4 (hen) [9] = target: HEWL-Full4 (hen) (UniProt P00698); assay: as above

Substance: D1.3 (antibody)
- Kd (HEWL-Full8 (hen) [1]): 12 nM
- Kd (HEWL-Hel-108 (hen) [2]): 5.7 nM
- Kd (HEWL-Full2 (hen) [3]): 2.9 nM
- Kd (HEWL-Full4 (hen) [4]): 7.9 nM

Substance: HyHEL-10 (antibody)
- Kd (HEWL-Full2 (hen) [5]): 150 nM
- Kd (HEWL-Hel-108 (hen) [2]): 0.092 nM

Substance: HyHEL-5 (antibody)
- Kd (HEWL-Full2 (hen) [6]): 0.14 nM
- Kd (HEWL-Hel-108 (hen) [7]): 0.14 nM
- Kd (HEWL-Full8 (hen) [8]): 0.18 nM
- Kd (HEWL-Full4 (hen) [9]): 0.15 nM
